Key:
[1] = tested on: carotid artery thrombosis; assay: Ferric chloride-induced mouse carotid artery thrombosis model; format: in vivo; conditions: compared to the control group
Procedure: C57BL/6 mice weighing from 20-25 g were used. Care and use of laboratory animals followed the national guidelines and were approved by the institutional animal care and ethics committees. Mice were anesthetized with isoflurane, following an intra-peritoneal injection with ketamine (100 mg/kg BW) and xylazine (20 mg/kg BW). The body core temperature was monitored with a digital thermometer, and controlled at either 28° C. or 37° C. with a thermal pad (Temperature Controller TR-200, Fine Science Tools Inc.). Reducing the body temperature to 28° C. was achieved by a gradual drop, at a rate of 0.3-0.4° C./min. The mice on the thermal pad were placed under a dissecting microscope (SZ61, Olympus). An incision of the skin was made directly on the top of trachea, and vessels used for experiment were bluntly isolated from surrounding tissues. […] After rinsing with normal saline, a nano-Doppler flow probe (0.5 VB, Transonic) was then positioned over the vessel and the blood flow rate (ml/min) was measured by a transit-time perivascular flow-meter (TS420, Transonic Systems Inc.). […] Jugular vein blood flow was recorded 15 minutes after induction of injury in mice pre-treated with EMP-scFv, eptifibatide or saline. The blood flow recorded at 1 minute was considered as the initial blood flow rate. […]

[2] = molecular target: T1, GPIIb/IIIa on mouse platelets (Mus musculus, UniProt O54890+Q9QUM0); assay: Flow cytometry: binding to mouse platelets
T1 construct: endogenous in cells
T1 sequence (Q9QUM0 32-1033): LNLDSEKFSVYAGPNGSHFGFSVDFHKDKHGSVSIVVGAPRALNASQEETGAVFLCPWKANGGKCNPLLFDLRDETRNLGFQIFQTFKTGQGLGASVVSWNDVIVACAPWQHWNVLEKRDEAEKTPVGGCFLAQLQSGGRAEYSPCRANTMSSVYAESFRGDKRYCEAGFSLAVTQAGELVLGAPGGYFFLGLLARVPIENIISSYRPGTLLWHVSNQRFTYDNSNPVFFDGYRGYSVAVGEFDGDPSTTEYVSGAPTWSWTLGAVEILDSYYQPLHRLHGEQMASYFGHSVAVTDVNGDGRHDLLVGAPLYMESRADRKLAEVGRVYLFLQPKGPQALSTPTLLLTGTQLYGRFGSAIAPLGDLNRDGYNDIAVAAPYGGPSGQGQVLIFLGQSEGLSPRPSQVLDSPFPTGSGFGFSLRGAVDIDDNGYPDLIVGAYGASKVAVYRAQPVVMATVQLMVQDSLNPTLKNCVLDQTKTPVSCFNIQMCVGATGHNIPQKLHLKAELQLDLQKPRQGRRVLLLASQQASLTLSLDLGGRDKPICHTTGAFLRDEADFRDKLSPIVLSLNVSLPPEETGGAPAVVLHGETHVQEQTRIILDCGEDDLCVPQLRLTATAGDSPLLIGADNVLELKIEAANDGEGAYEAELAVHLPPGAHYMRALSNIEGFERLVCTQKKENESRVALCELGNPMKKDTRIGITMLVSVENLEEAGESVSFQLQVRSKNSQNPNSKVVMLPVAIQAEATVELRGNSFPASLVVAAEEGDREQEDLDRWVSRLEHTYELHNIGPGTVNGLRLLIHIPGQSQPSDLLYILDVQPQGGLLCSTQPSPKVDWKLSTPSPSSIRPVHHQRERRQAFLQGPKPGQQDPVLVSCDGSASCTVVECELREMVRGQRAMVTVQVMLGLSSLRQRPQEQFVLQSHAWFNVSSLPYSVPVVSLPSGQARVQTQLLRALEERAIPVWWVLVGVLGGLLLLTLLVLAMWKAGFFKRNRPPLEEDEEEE
T1 sequence (O54890 26-787): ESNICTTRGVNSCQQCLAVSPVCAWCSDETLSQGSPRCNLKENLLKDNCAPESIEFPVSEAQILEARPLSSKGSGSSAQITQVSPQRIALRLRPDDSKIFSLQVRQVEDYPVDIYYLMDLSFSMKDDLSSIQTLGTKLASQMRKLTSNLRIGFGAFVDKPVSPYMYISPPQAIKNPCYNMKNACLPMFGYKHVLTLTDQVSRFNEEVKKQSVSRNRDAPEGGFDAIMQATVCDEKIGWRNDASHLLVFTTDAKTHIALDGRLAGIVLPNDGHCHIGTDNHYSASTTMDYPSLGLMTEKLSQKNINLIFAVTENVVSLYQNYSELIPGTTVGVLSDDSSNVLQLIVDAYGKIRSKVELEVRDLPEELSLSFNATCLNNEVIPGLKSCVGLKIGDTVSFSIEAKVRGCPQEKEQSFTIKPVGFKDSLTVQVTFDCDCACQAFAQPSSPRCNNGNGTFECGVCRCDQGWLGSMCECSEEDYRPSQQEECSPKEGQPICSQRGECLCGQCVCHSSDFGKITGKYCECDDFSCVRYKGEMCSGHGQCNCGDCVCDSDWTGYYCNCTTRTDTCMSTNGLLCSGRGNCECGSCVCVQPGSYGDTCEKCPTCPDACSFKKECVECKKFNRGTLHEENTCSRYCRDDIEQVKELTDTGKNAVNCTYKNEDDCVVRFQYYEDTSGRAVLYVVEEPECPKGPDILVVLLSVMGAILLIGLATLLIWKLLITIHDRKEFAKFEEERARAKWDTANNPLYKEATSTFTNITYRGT
Procedure: Mouse blood was collected by intracardiac puncture with a 27-gauge needle from C57BL/6 mice and anticoagulated with non-fractionated heparin (20 U/mL). A volume of 50 μl was washed with 1 mL modified Tyrode's buffer (150 mM NaCl, 2.5 mM KCl, 1.2 mM NaHCO3, 0.1% BSA, 0.1% Glucose) and centrifuged at 1200×g for 6 min. The supernatant was discarded and the pellet was resuspended in 1 mL modified Tyrode's buffer containing 2 mM MgCl2 and 2 mM CaCl2.
(§1) Human PRP was diluted 1/50 in modified Tyrode's buffer containing 2 mM MgCl2 and 2 mM CaCl2. Platelets were either activated by addition of 20 μM ADP, or non activated, followed by the incubation with 15 and 50 μg/mL EMP-scFv fusion protein or EMP at 22° C., 32° C. and at 37° C. for 15 min. Mouse platelets were either pre-activated for 10 min by addition of 0.1 U/mL thrombin (Enzyme Research Laboratories), or non activated, before the incubation with 15 and 50 μg/mL of EMP-scFv fusion protein at 22° C., 32° C. or 37° C. for 15 min. In both, human and mouse samples, EMP-scFv was detected via 15 min in-dark incubation with secondary antibody (Penta-His Alexa Fluor 488, Qiagen) directed against the His(6)-tag of the single-chain antibody.

[3] = tested on: activated human platelets; assay: Microscopic analysis of platelet aggregates; format: cell-based; conditions: 22° C.
Procedure: For the microscopic analysis of platelet aggregates at different temperatures, non-diluted human PRP was placed onto a glass slide and ADP was added to a final concentration of 20 μM, in the presence and absence of EMP-scFv (50 μg/mL). Abciximab was used as a positive control at a concentration of 10 μg/mL. The experiments were conducted at 22° C. and 37° C. Phase contrast microscopy images were taken using an Olympus CKX41 microscope.

[4] = molecular target: T2, GPIIb/IIIa on human platelets (Homo sapiens, UniProt P05106+P08514); assay: Flow cytometry: binding to human platelets; conditions: for binding to human activated platelets: 20 μM ADP
T2 construct: endogenous in cells
Procedure: Human blood was collected by venipuncture with a 21-gauge butterfly needle from healthy volunteers and anticoagulated with citric acid. Platelet-rich plasma (PRP) was obtained by centrifugation (GS-6R centrifuge, Beckman Coulter) at 100×g at room temperature for 10 min.
as §1
In re-warming experiments, activated and non-activated diluted human PRP was incubated with 15 and 50 μg/mL of EMP-scFv for 15 minutes at 22° C., followed by a 15-min in dark incubation with secondary Penta-His Alexa Fluor 488 antibody. Half of the reaction was then fixed with 1× Cell FIX, while the other half was incubated at 37° C. for either 15 or 30 minutes, before being fixed and measured in FACS.

platelet aggregates = assay: Flow chamber: binding to platelet aggregates under physiological flow; format: cell-based; conditions: hypothermic temperatures
Procedure: Temperature-dependent binding of EMP-scFv to platelet aggregates was analysed using a flow chamber system. Vitrotubes rectangular capillaries (0.20×2.0 mm) were washed with 70% ethanol, dried, and coated overnight with 10 μg/ml of collagen (Collagen Reagent Horm Nycomed). Liquid was entered into the capillary via capillary drag. Capillaries were blocked for 1 hour with 1% BSA and then washed with PBS. The capillary was connected on the one end to a reservoir and on the other end to a Harvard medical pump by tubing. Before connecting the capillary all tubes were flushed with PBS in order to avoid air bubbles entering the capillary. PRP was then drawn into the capillary and numerous platelet aggregates were formed within 10 minutes. The capillary was then washed with PBS via the pump. In the meantime, the EMP-scFv (50 μg/mL) was incubated with PENTA-HIS Alexa Fluor 488 (Qiagen) antibody for 10 minutes in a final volume of 1 mL, and then drawn into the capillary containing platelet aggregates at physiological flow rate of 60s^−1. The capillary was then imaged with a 20× magnification objective, after which DIC and fluorescent images were captured using Olympus IX81 microscope with XM10 camera. The experiments were conducted at 22° C. and 37° C.

human platelets = assay: Flow cytometry: platelet activation (PAC-1 binding, P-selectin expression); format: cell-based; conditions: human diluted PRP, 22° C.
Procedure: Effects of EMP-scFv on platelet activation were addressed by incubating human diluted PRP with 15 and 50 μg/mL of EMP-scFv at 22° C. for 15 minutes, followed by the addition of either PAC-1 or CD62P antibodies and in-dark incubation for 15 minutes. The reactions were fixed and levels of PAC-1 binding and P-Selectin expression analysed in FACS.

B1: EMP-scFv: fusion of elastin mimetic polypeptide (EMP) and activation-specific GPIIb/IIIa-blocking single-chain antibody; 704 amino acids, approximately 70 kDa (protein)
chain: MAVPAVGIPAVGIPAVGIPAVGIPAVGIPAVGIPAVGIPAVGIPAVGIPAVGIPAVGIPAVGIPAVGIPAVGIPAVGIPAVGIPAVGIPAVGIPAVGIPAVGIPAVGIPAVGIPAVGIPAVGIPAVGIPAVGIPAVGIPAVGIPAVGIPAVGIPAVGIPAVGIPAVGIPAVGIPAVGIPAVGIPAVGIPAVGIPAVGIPAVGIPAVGIPAVGIPAVGIPAVGIPAVGIPAVGIPAVGIPAVGIPAVGIPAVGIPAVGIPAVGIPAVGIPAVGIPAVGIPAVGIPAVGIPAVGIPAVGIPAVGIPAVGIPAVGIPAVGIPAVGIPAVGIPAVGIPAVGIPAVGIPAVGIPAVGIPAVGIPAVGIPAVGIPAVGIPAVGIPAVGIPAVGIPAVGIPAVGIPAVGIPGGGGSMMAEVQLVESGGGLVQPGGSLRLSCAASGFMFSRYAMSWVRQAPGKGPEWVSGISGSGGSTYYADSVKGRFTVSRDNSKNTLYLQMNSLRAEDTAVYYCARIFTHRSRGDVPDQTSFDYWGQGTLVTVSSGSASAPKLEEGEFSEARVSSELTQDPAVSVALGQTVRITCQGDSLRNFYASWYQQKPGQAPTLVIYGLSKRPSGIPDRFSASSSGNTASLTITGAQAEDEADYYCLLYYGGGQQGVFGGGTKLTVLRQPKAAPSVTLFPPSSAAAGSEQKLISEEDLNSHHHHHH
occlusion time ([1]; 28° C.): significantly prolonged
occlusion time ([1]; 37° C.): remained unchanged
binding to activated murine platelets ([2]; 22° C., mouse whole blood): binds
binding to resting mouse platelets ([2]; either 22° C. or 37° C.): did not bind
aggregation of activated human platelets (microscopy) [3]: inhibited aggregation
binding to human activated platelets ([4]; 22° C.): significantly higher level
binding to human activated platelets ([4]; 37° C.): totally abolished
dissociation from GPIIb/IIIa upon re-warming ([4]; bound to activated platelets at 22° C., then temperature increased to 37° C.): did not dissociate
binding to resting platelets ([4]; human, regardless of the temperature): No binding
binding to platelet aggregates under flow (platelet aggregates): induced binding
platelet activation: P-selectin expression (human platelets): no effect
platelet activation: binding of PAC-1 (human platelets): no effect
